Data as given in the DeepSol protein solubility set.

Assay: soluble on expression in E. coli; label from the status in PepcDB or PDB records

Question: Which “soluble on expression in E. coli” value does the source give for “MGSDKIHHHHHHMKTQSQDRWFIWQLSEELEAKIRYREYGPPDSPFTPLLFIHGYGGMIEHWNDNIPSFDDRYRIYAMDLIGFGQSGKPNVRYSLALFAAQIKAFMHLKKLEKVTLVGHSMGAASSIIYAHHNPDSVRALVLANPSGLYGDSMDGVAKIFFGLVGSPLIGEMLFAAFANPVGVSQSLTPTYYNQKKVDLNLINQFSRPLQDRGAIFSYLSPSKRPHDFMLDGLKPCNYKGDAWLLWGAEDTALPPHKIIPEFQELLPQAGAYIIPKAGHCIHHDAHETFNNRLAQLLQRLE” here?
Answer: The value was “not soluble”.

Question: With “MSLTEEQLLFRIALTHVKGVGSVLARQLLSAMGSPEAIFSDRKELVQRLPKAPRRLLDAIFSPSVMEEARRKLDQALKAGLNMYFITDDNYPYRLKECVDAPILLYSKGNVDLSPRRVLSIVGTRNITAYGRTATERIVSGLAETIPDLLIVSGLAYGVDVAAHKAALDNGLPTVAVLAHGLDRIYPSGHRSIAMEMLRNGGLLTDYPMGTEPERFNFVGRNRIVAGLSDATLVIESAEKGGSLITAGLAFGYNREVLALPGRATDSRSAGCNALIRDQKAALVSSAQDVLTLLDWSSTIDAKPQTEGHHHHHH” as the sequence, how does the “soluble on expression in E. coli” value read?
Answer: Its value is “soluble”.

Question: For “MSLNDYSRQNFLDLNLFRGLGEDPAYHPPVLTDRPRDWPLDRWAEAPRDLGYSDFSPYQWRGLRMLKDPDTQAVYHDMLWELRPRTIVELGVYNGGSLAWFRDLTKIMGIDCQVIGIDRDLSRCQIPASDMENITLHQGDCSDLTTFEHLREMAHPLIFIDDAHANTFNIMKWAVDHLLEEGDYFIIEDMIPYWYRYAPQLLSEYLGAFRDVLSMDMLYANASSQLDRGVLRRVAAKQEGHHHHHH”, which “soluble on expression in E. coli” value is on record?
Answer: The value was “soluble”.

Question: Which “soluble on expression in E. coli” value does the source give for “MSLSLRLPLAGGGLETFKLSAPRDFPARASGPMNRIAFSAAHVVADPLAASDPWLEAAIDWDHTIAYRQRLWDLGLGVAEAMDTAQRGMGLDWPTSLDLIRRSVEAAKAHGPEALVFSGAGTDHLAPEAARSLDDVIRAYEEQVAAVEKVGGRIILMASRALARIGTSAADYETVYGRILSQVREPVIIHWLGDMFDPALAGYWGTRDLDAAMDTAVAIINAHAAKVDGVKISLLDKDKEIAMRRRLDPAVRMYTGDDFNYAELVAGDAQGYSHALLGIFDAIAPAASAALTALAAGDEAGFHDILAPTVPLSRHIFRAPTRFYKTGVVFMAYLNGHQDHFTMVGGQESARSTLHLAELFRLADRAGLLTDPDLAVQRMRAVLAVRGVEAEGHHHHHH” here?
Answer: The value was “soluble”.

Question: For “MGSDKIHHHHHHMQASFMRMTDKRSPGKPLHPHGVLRPLVFKGRGALSNHDGRFDHLQHADIDDGWHNLDQDLAPLPTEVLIDNSRSIINWNNSPDVPFDRSINPYRGCEHGCIYCFARPTHTYLGLSAGLDFESRILVKPDAARLLRQELSKQHYRCAPIAMGTNTDPYQPLEKQHQLTRQILQVLAEFRHPVSIVTKAAMVERDIDILAPMASQGLVQVFISITTLSNQVSRTLEPRAAAPQRRLDTIRRLHQAGIPTGVMTAPVIPVLTDPELEHILAAASEAGASSAGYVLLRLPLEVAPLFEEWLQHHYPLKASHVMSIIRQSRDGKTNHTDFHARMRGNGLFAEMIRQRFRLACRKLGLNQRSMEMDTSLFRPPGKPEQLGLF”, which “soluble on expression in E. coli” value is on record?
Answer: Its value is “not soluble”.

Question: Which “soluble on expression in E. coli” value does the source give for “PLVKISGSSTVFPITEAVSEDFQAAKKGAIMVTAGIAGTGGGFKKFCRDEVDIVNASRPILSSEMEQCRQNGVQYIEMPIAFDALTVVVNPGNDWIKSMTVAELKKIWEPAAQEKILNWNQVNPAWPNARIKLFGAGADS” here?
Answer: The value was “not soluble”.

Question: For “MQDWWEADNRLADWLSMILIQRTIEKNAKQALANLGPHLDLESLIGMDMATLEEYIYPAGFYKQKSIYIKALIKWFHGHGASLDKFQTYSTEDLRKELLGIKGVGEETADAMLLYIFERNVFIADLEHHHHHH”, which “soluble on expression in E. coli” value is on record?
Answer: The value was “not soluble”.

Question: Which “soluble on expression in E. coli” value does the source give for “MGSDKIHHHHHHMRIAILSQGPELYSTKRLVEAATLRGHEVKVINPLECYMNINMRQSSIHIGGEELPPFDAVIPRIGASITFYGSAVLRQFEMMGVYALNDSVGISRSRDKLRSMQLMSRRGIGLPITGFANKPSDIPDLIDMVGGAPLVIKLLEGTQGIGVVLAETRKAAESVIEAFMGLKANIMVQEYIKEANGADIRCFVLGDKVVAAMKRQAMPGEFRSNLHRGGTASLVKLTPEERSVAIRAAKTMGLNVAGVDLLRSNHGPLVMEVNSSPGLEGIEGATAKDVAGAIIEFVEKNALKTKKPTQA” here?
Answer: Its value is “not soluble”.

Question: With “SKRFVIGIGGVTNGGKTTLAKSLQKHLPNCSVISQDDFFKPESEIDIDENGFLQYDVLEALNMEKMMSAVSCWMENPGSSAGPAALESAQGVPILIIEGFLLFNYKPLDTIWNRSYFLTVPYEECKRRRSTRVYEPPDPPGYFDGHVWPMYLKHRQEMSSITWDIVYLDGTRSEEDLFSQVYEDVKQELEKQNGL” as the sequence, how does the “soluble on expression in E. coli” value read?
Answer: The value was “soluble”.

Question: With “MDSIIELRHLKTLLALEETGSVSLAAKRVFLTQSALSHQIRMLENHYGTPLFERKSTPLRFTPVGERLLRLAHELIPQVAVAEWDLARITEGEAGELRIAVECHTCFDWLMPAMGEFRPMWPQVELDIVSGFQADPVGLLLQHRADLAIVSEAEKQNGISFQPLFAYEMVGICAPDHPLAAKNVWTAEDFIGETLITYPVPDEMLDLPKKILIPKNINPPRRHSELTIAIIQLVASRRGIAALPYWTVMPYLEKGYVVHRQITADGLQSKLYAAIRTEDTDKSYLNNFCQIIRERGFADLPGLSELEPV” as the sequence, how does the “soluble on expression in E. coli” value read?
Answer: Its value is “not soluble”.

Question: For “MVTSKKCPTCHGKRLSTSVLKCKINNLDIADFTNLSIDDALKFIKKIDSPKANVIIEPLQQQLESLSYIGLNYLTLSRESTSLSGGESQRIKLIRHLNSALSDLVYIIDEPSIGLHPEDIQRINEIILSLKNKGNTVLVVEHDPDVIKIADYIIDLGPLAGKYGGDITFTGSYHELLNSTTHTGDALRRMHQLKSPNLSASNFINLKNVSRNNIKNMTVTLPEQAMTVVTGVAGSGKSSLIHTGLEALADTIFIDQKPAHASSRSNLLTYLNIFDDVRSYFSEVTGLKKSLFSYNSAGACPECHGKGIIKTELAFMPDFTQTCDVCHGKRYKPEVLDVKVEGYNIADILALTVDEAITFFNKNKDIAQPLQALKSTGLNYMTLGQTLDTLSGGEVQRVKLSKYLTKTVHQHIFVFDEPTTGLHEDDIPILIDCFKRLIDEHNTVVIIEHNLTMMTYADWIIDIGPFAGEKGGQLLYQGEPQGLLQINASLTAKHLKRYTERLEHHHHHH”, which “soluble on expression in E. coli” value is on record?
Answer: The value was “soluble”.

Question: For “MTSASAPSFNPGKGPGSAVGIALLGFGTVGTEVMRLMTEYGDELAHRIGGPLEVRGIAVSDISKPREGVAPELLTEDAFALIEREDVDIVVEVIGGIEYPREVVLAALKAGKSVVTANKALVAAHSAELADAAEAANVDLYFEAAVAGAIPVVGPLRRSLAGDQIQSVMGIVNGTTNFILDAMDSTGADYADSLAEATRLGYAEADPTADVEGHDAASKAAILASIAFHTRVTADDVYCEGISNISAADIEAAQQAGHTIKLLAICEKFTNKEGKSAISARVHPTLLPVSHPLASVNKSFNAIFVEAEAAGRLMFYGNGAGGAPTASAVLGDVVGAARNKVHGGRAPGESTYANLPIADFGETTTRYHLDMDVEDRVGVLAELASLFSEQGISLRTIRQEERDDDARLIVVTHSALESDLSRTVELLKAKPVVKAINSVIRLERD”, which “soluble on expression in E. coli” value is on record?
Answer: Its value is “not soluble”.

Question: Which “soluble on expression in E. coli” value does the source give for “MSLRRIGITQRLLETREYIETREALDVRWGELFYHLSWGMIPLSYAVPLEVYIKEFALEGVILSGGNDLNDFVSSPLNKKRDAYEKEILRYAKQYAFPLLGVCRGAQMIAYEGGSLLEFCEGHVGRHEIFWEEGEGEIIGSEHQLAIKELGAGLIPLARSCEGLVEAFRGEEAPLFGMMWHPERQDKRSAGTLKMVELFSQALQKREGHHHHHH” here?
Answer: Its value is “soluble”.

Question: Which “soluble on expression in E. coli” value does the source give for “MAHHHHHHMDKKRSIVKKPERGSFLLDHNSECTPIKNDYLKCLKEHNNDHVSCREYSKEYFICRMDKNLLERQSLNDLGFSENETNHESRIKHFKDVYSYNVYNETMESFPKGRALKRTDTASGAVFVEEKLTQGKRDNKADMKPARGDDFLLLNLRNDKEGEQKINGKVFEITQEKKIAVKRKEEEGYLAGKEYIKTLVEKKKRHPLFSYNIFKSSNT” here?
Answer: Its value is “soluble”.

Question: With “AIAPAKSPSTRKKRARTKDEDEENVDTGNQTTAPTFRDKNLQLVHDFLASQNRPFSLQNILDSLANKGDMKKAALDKALTELVTSEYVTCKEYGKAKLYLIRQKNIALPSAEETAALDSRLETLANELEELSAECQVLEAKISELSAQPRTEEAKERVALLETETATIDERIEKLQVHCAGYDSSRRQYIQQQHERALKALRLRRSRARQIILQMAEGMERKPRELADEIGIESDSDDWLTASRSVVSNARSKAAV” as the sequence, how does the “soluble on expression in E. coli” value read?
Answer: The value was “soluble”.

Question: With “MKKFCLSYSSGKDCLLAMDRLVQAGNQPVALVTTLSDEINRSWFHGIPISVLEAAAEALDLPLVISHNNETNYTEKVVEALQETKKLGAETVCFGDIDIEQNGAWDRQVALSAGLEPQLPLWQENREALVKEFLAKGYTAIIKTVSKEAGIPIKFLGEPLNETFITYLKEHQLDICGENGEYHTLVIDGPLFKKRLNYYTSGIYESPYAYSLIIDALEHHHHHH” as the sequence, how does the “soluble on expression in E. coli” value read?
Answer: Its value is “soluble”.

Question: For “MAHHHHHHMPLIVPTPPAHPAQSPNQANGELLGRLMKLYRALCVRHDELGQEVILNDILAFLTRTHQHDMAESVIATCEISLPHRSNNQAARYFYYVGLTRALRLEYVDANQCLQQALRKAPERAFGFRVAATKLALVVQLLLGEIPPRSDFLQKDMRESLSPYLQLASCVRFGQLSRFMSILQQHKNIFEHDRTYSLILRVRQHVIKTGLRRICHAYSRISIPDICFKLSMENPADAEYIIAKAIRDGVIDAVIDHEKGHLISSDTVDVYSTSEPLLALQRRIQFLNVTHNDAKRSMRYTAADPELEEERRKVDREEMDSALRAALEDEELGGTDFEDGLP”, which “soluble on expression in E. coli” value is on record?
Answer: Its value is “not soluble”.

Question: Which “soluble on expression in E. coli” value does the source give for “MNGLATSLGKGQESAIGGSSAIGEYIRPLPQPGDRPEPLSAKPTFLSRSGSARCRSESDMENERNSNTSKQRYSGKVHLCVARYSYNPFDGPNENPEAELPLTAGKYLYVYGDMDEDGFYEGELLDGQRGLVPSNFVDFVQDNESRLASTLGNEQDQNFINHSGIGLEGEHILDLHSPTHIDAGITDNSAGTLDVNIDDIGEDIVPYPRKITLIKQLAKSVIVGWEPPAVPPGWGTVSSYNVLVDKETRMNLTLGSRTKALIEKLNMAACTYRISVQCVTSRGSSDELQCTLLVGKDVVVAPSHLRVDNITQISAQLSWLPTNSNYSHVIFLNEEEFDIVKAARYKYQFFNLRPNMAYKVKVLAKPHQMPWQLPLEQREKKEAFVEFSTLPAGPPAPPQDVTVQAGVTPATIRVSWRPPVLTPTGLSNGANVTGYGVYAKGQRVAEVIFPTADSTAVELVRLRSLEAKGVTVRTLSAQGESVDSAVAAVPPELLVPPTPHPRPAPQSKPLASSGVPETKDEHLGPHARMDEAWEQSRAPGPVHGHMLEPPVGPGRRSPSPSRILPQPQGTPVSTTVAKAMAREAAQRVAESSRLEKRSVFLERSSAGQYAASDEEDAYDSPDFKRRGASVDDFLKGSELGKQMVS” here?
Answer: Its value is “not soluble”.

Question: With “MGSDKIHHHHHHMYLKELSMMPGVSGDEGKVRDFIKSKIEGLVDNLYTDVLGNLIALKRGRDSSKKLLVSAHMDEVGFVVSKIEKDGKVSFLPVGGVDPRILPGKVVQVKNLKGVIGYRPIHLQRDEENTPPRFENLRIDFGFSSADEAKKYVSIGDYVSFVSDYIEKNGRAVGKAFDDRAGCSVLIDVLESGVSPAYDTYFVFTVQEETGLRGSAVVVEQLKPTCAIVVETTTAGDNPELEERKWATHLGDGPAITFYHRGYVIPKEIFQTIVDTAKNNDIPFQMKRRTAGGTDAGRYARTAYGVPAGVISTPARYIHSPNSIIDLNDYENTKKLIKVLVEEGKIVEVVS” as the sequence, how does the “soluble on expression in E. coli” value read?
Answer: The value was “not soluble”.

Question: With “CFSCLNQKSNLYCLKPTICSDQDNYCVTVSASAGIGNLVTFGHSLSKTCSPACPIPEGVNVGVASMGISCCQSFLCNFS” as the sequence, how does the “soluble on expression in E. coli” value read?
Answer: Its value is “soluble”.
